Test results as given in article PMC5446653.

Target: human coxsackievirus and adenovirus receptor on CHO-CAR cells (human) (UniProt P78310)

soluble recombinant HAdV-5 fiber knob Y477A (from UniProt P11818 1-581) (domain or fragment)
inhibition of HAdV-5-EGFP transduction of CHO-CAR cells (EGFP-positive cells by flow cytometry) after preincubation with FK*, 0.0001 to 100 μg/10^5 cells, 1 h at 4°C (μg/10^5 cells): > 100
